Common to all, as to details: both partners purified
Test [1] addresses T1, human LRP6 E1E2 with a C-terminal 10× His tag, labeled with the dye NT-647 (human, UniProt O75581 21-630, dye NT-647 (Monolith NT Protein Labeling kit)).
T1 construct: Low-density lipoprotein receptor-related protein 6 (LRP6), human, ectodomains E1 and E2; the limits P21-P630 are printed for the co-expression construct; the MST construct was cloned into another vector (pAcGP67A); also called Labeled LRP6 E1E2; source: High Five insect cells (pAcGP67A), purified (Ni-NTA, HiTrapQ, SEC), no tag cleavage; not shown: His10, C-terminal, kept
T1 sequence (looked up): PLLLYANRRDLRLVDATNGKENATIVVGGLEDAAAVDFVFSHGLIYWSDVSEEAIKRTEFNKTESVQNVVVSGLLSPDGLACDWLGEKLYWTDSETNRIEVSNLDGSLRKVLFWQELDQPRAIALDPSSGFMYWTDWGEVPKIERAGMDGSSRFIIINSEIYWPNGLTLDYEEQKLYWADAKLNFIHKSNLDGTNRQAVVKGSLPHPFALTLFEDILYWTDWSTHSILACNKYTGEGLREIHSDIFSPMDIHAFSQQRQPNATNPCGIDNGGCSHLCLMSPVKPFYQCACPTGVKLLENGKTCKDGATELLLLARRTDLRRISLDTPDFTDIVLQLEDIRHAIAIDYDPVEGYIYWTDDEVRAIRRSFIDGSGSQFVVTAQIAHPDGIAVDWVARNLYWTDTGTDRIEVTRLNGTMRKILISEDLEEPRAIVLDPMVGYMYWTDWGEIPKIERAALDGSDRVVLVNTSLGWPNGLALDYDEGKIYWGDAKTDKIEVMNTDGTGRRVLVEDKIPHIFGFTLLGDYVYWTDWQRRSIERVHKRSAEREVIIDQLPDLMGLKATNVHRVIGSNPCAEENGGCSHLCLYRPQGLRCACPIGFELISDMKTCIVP
The test can be described thus: MST; LRP6 E1E2 or E1 labeled with NT-647 at ~5 nM, unlabeled SOST proteins or peptides titrated; 20 mM Tris-Cl pH 7.0, 200 mM NaCl, 0.5 mg/ml BSA, 0.05% Tween 20; 22 °C; Monolith NT.115 Pico.

The target of test [2] is T2, human LRP6 E1E2 (P21-P630) with a C-terminal 10x His tag (human, UniProt O75581 21-630, labeled with the dye NT-647 in the MST experiments (legends: Cy-5 dye-labeled)).
T2 construct: low-density lipoprotein receptor-related protein 6 (LRP6), human, ectodomains E1 and E2, residues P21-P630; also called LPR6 E1E2; source: High Five insect cells, secreted, purified (Ni-NTA, HiTrapQ, SEC); for the crystal co-expressed with SOSTtr177
T2 sequence (looked up): T1 sequence (looked up)
The test can be described thus: MST; labeled LRP6 E1E2 or LRP6 E1 (~5 nM) titrated with unlabeled Smo-SOST, MBP-SOST, tags or peptides; 20 mM Tris-Cl pH 7.0, 200 mM NaCl, 0.5 mg/ml BSA, 0.05% Tween 20; 22 °C; three independent experiments.

The target in another test is T3, LRP6 E1E2 H404K (human, UniProt O75581 21-630, H404K).
T3 construct: Low-density lipoprotein receptor-related protein 6 (LRP6), human, ectodomains E1 and E2 (parent construct P21-P630) with H404K; Mutation introduced into the LRP6 E1E2 of the crystallised complex; also called LRP6 E1E2 with the H404K mutation; source: purified as a complex with SOST_(tr177) N175K
T3 sequence (looked up): T1 sequence (looked up) with H384K
The test can be described thus: cross-linking; purified LRP6 E1E2 H404K–SOST_(tr177) N175K complex with BS3 at room temperature for 30 min; ~90 kDa band cut out, chymotrypsin, LC-MS/MS.

The target of test [3] is T4, human LRP6 E1E2 (P21–P630) with a C-terminal 10× His tag (human, UniProt O75581 21-630).
T4 construct: Low-density lipoprotein receptor-related protein 6 (LRP6), human, ectodomains E1 and E2, residues P21-P630; Unlabelled form: crystal, SEC-MALS and fluorescence-SEC; An anti-His-tag antibody was used for the western blots of the fluorescence-SEC experiment; also called LRP6 ectodomains 1 and 2; source: High Five insect cells (baculovirus), secreted, purified (Ni-NTA, HiTrapQ, SEC); co-expressed …
T4 sequence (looked up): T1 sequence (looked up)
The test can be described thus: SEC-MALS; purified complex at 1 mg/ml on Superdex 200 increase 5/150 GL; 50 mM Tris pH 8.5, 150 mM NaCl; protein conjugate method.

For test [4], the target named is T5, human LRP6 E1 (P21-D325) with a C-terminal His tag (human, UniProt O75581 21-325, labeled with the dye NT-647 in the MST experiments (legends: Cy-5 dye-labeled)).
T5 construct: low-density lipoprotein receptor-related protein 6 (LRP6), human, ectodomain E1, residues P21-D325; The methods name a 10x His tag; also called LPR6 E1; source: High Five insect cells, secreted, purified (Ni-NTA, HiTrapQ, SEC)
T5 sequence (looked up): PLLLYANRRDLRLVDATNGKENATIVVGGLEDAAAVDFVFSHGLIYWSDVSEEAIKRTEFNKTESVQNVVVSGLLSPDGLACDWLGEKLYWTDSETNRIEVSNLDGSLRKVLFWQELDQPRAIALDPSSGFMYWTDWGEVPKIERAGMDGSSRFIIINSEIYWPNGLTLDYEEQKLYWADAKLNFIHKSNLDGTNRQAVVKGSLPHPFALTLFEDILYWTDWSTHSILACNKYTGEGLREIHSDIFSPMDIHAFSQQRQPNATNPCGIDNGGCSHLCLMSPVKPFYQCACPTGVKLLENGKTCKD
The test can be described thus: MST; labeled LRP6 E1E2 or LRP6 E1 (~5 nM) titrated with unlabeled Smo-SOST, MBP-SOST, tags or peptides; 20 mM Tris-Cl pH 7.0, 200 mM NaCl, 0.5 mg/ml BSA, 0.05% Tween 20; 22 °C; three independent experiments.

The target in test [5] is T6, human LRP6 E1 with a C-terminal 10× His tag, labeled with the dye NT-647 (human, dye NT-647 (Monolith NT Protein Labeling kit)).
T6 chain: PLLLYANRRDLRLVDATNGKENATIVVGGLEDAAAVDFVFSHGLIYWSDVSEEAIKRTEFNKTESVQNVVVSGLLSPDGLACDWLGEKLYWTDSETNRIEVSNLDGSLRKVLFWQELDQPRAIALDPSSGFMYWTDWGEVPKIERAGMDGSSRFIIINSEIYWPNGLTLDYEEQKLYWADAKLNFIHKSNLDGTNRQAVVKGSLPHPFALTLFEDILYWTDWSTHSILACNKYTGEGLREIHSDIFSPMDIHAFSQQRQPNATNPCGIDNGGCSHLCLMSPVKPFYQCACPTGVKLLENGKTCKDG
The test can be described thus: MST; LRP6 E1E2 or E1 labeled with NT-647 at ~5 nM, unlabeled SOST proteins or peptides titrated; 20 mM Tris-Cl pH 7.0, 200 mM NaCl, 0.5 mg/ml BSA, 0.05% Tween 20; 22 °C; Monolith NT.115 Pico.

Consider 13 molecules from paper PMC7585440, “Sclerostin inhibits Wnt signaling through tandem interaction with two LRP6 ectodomains” (Nature Communications, 2020).

Substitutions are numbered along the chain they refer to. Names and notes keep the numbering of the source. Bridges are numbered along the chain shown (N, C = ends). Where no end group is shown, it is not given here.

B1: SOST∆loop2 with an N-terminal His6-SUMO tag (natural protein)
chain: QGWQAFKNDATEIIPELGEYPEPPPELENNKTMNRAENGGRPPHHPFETKDVSEYSCRELHFTRYVTDGPCRSAKPVTELVCSGQCGPAGSGGSGPDFRCIPDRYRAQRVQLLCPGGEAPRARKVRLVASCKCKRLTRFHNQSELKDFGTEAARPQKGRKPRPRARSAKANQAELENAY
In test [1], B1 yielded a dissociation constant Kd of 1000 nM.

B2: human SOSTtr178 (Q24-E178) with an N-terminal His6-SUMO tag (domain or fragment)
chain: QGWQAFKNDATEIIPELGEYPEPPPELENNKTMNRAENGGRPPHHPFETKDVSEYSCRELHFTRYVTDGPCRSAKPVTELVCSGQCGPARLLPNAIGRGKWWRPSGPDFRCIPDRYRAQRVQLLCPGGEAPRARKVRLVASCKCKRLTRFHNQSE
notes: sclerostin (SOST), human, residues Q24-E178; also called Smo-SOSTtr178; source: High Five insect cells, secreted, purified; tag not cleaved; not shown: His6, N-terminal, kept; SUMO, N-terminal, kept
B2 showed a Kd in test [2] of 680 nM.

B3: human SOSTtr177 (Q24-S177) with an N-terminal His6-SUMO tag (domain or fragment)
chain: QGWQAFKNDATEIIPELGEYPEPPPELENNKTMNRAENGGRPPHHPFETKDVSEYSCRELHFTRYVTDGPCRSAKPVTELVCSGQCGPARLLPNAIGRGKWWRPSGPDFRCIPDRYRAQRVQLLCPGGEAPRARKVRLVASCKCKRLTRFHNQS
notes: sclerostin (SOST), human, residues Q24-S177; also called Smo-SOSTtr177; source: High Five insect cells, secreted, purified; tag not cleaved; not shown: His6, N-terminal, kept; SUMO, N-terminal, kept
In test [2], B3 returned a Kd of 680 nM.

B4: SOST_(tr177) N175K (domain or fragment, human, UniProt Q9BQB4 24-177, looked up)
chain: B3 chain with N152K
notes: Sclerostin (SOST), human, residues Q24-S177 (parent SOST_(tr177)) with N175K; also called SOSTtr177 with the N175K mutation; source: purified as a complex with LRP6 E1E2 H404K
For B4, the binding result in the test with LRP6 E1E2 H404K is “binds”.

B5: human SOST_(tr177) (Q24-S177) (domain or fragment, UniProt Q9BQB4 24-177, looked up)
chain: B3 chain
notes: Sclerostin (SOST), human, residues Q24-S177; N175 not glycosylated in this construct; also called crystallization construct; not shown: His6, N-terminal, cleaved; MBP, N-terminal, cleaved
Consider B5, for which the “stoichiometry N” value in test [3] is 1.

B6: human SOSTtr187 (Q24-A187) with an N-terminal His6-SUMO tag (domain or fragment)
chain: QGWQAFKNDATEIIPELGEYPEPPPELENNKTMNRAENGGRPPHHPFETKDVSEYSCRELHFTRYVTDGPCRSAKPVTELVCSGQCGPARLLPNAIGRGKWWRPSGPDFRCIPDRYRAQRVQLLCPGGEAPRARKVRLVASCKCKRLTRFHNQSELKDFGTEAA
notes: sclerostin (SOST), human, residues Q24-A187; also called Smo-SOSTtr187; source: High Five insect cells, secreted, purified; tag not cleaved; not shown: His6, N-terminal, kept; SUMO, N-terminal, kept
In test [2], B6 gave a Kd of 600 nM.

B7: human SOSTtr169 (Q24-R169) with an N-terminal His6-SUMO tag (domain or fragment)
chain: QGWQAFKNDATEIIPELGEYPEPPPELENNKTMNRAENGGRPPHHPFETKDVSEYSCRELHFTRYVTDGPCRSAKPVTELVCSGQCGPARLLPNAIGRGKWWRPSGPDFRCIPDRYRAQRVQLLCPGGEAPRARKVRLVASCKCKR
notes: sclerostin (SOST), human, residues Q24-R169; also called Smo-SOSTtr169; source: High Five insect cells, secreted, purified; tag not cleaved; not shown: His6, N-terminal, kept; SUMO, N-terminal, kept
With B7, binding in test [4] was put at a Kd of 870 nM.

B8: SOST_(tr169) with an N-terminal His6-SUMO tag (domain or fragment, human, UniProt Q9BQB4 24-169, looked up)
chain: B7 chain
notes: has neither the HNQS region nor the basic-residue cluster; also called Smo-SOST mutant tr169; source: High Five insect cells (pAcGP67A), purified (Ni-NTA, HiTrapQ, SEC), no tag cleavage; not shown: His6, N-terminal, kept; SUMO, N-terminal, kept
The molecule B8 came in with a Kd in test [1] of 900 nM.

B9: human WT SOST (Q24-Y213) with an N-terminal His6-SUMO tag (natural protein)
chain: QGWQAFKNDATEIIPELGEYPEPPPELENNKTMNRAENGGRPPHHPFETKDVSEYSCRELHFTRYVTDGPCRSAKPVTELVCSGQCGPARLLPNAIGRGKWWRPSGPDFRCIPDRYRAQRVQLLCPGGEAPRARKVRLVASCKCKRLTRFHNQSELKDFGTEAARPQKGRKPRPRARSAKANQAELENAY
notes: sclerostin (SOST), human, residues Q24-Y213; also called Smo-SOST; Smo-SOST WT; source: High Five insect cells, secreted, purified; tag not cleaved; not shown: His6, N-terminal, kept; SUMO, N-terminal, kept
Take B9: binding in test [4] was put at a Kd of 780 nM.

B10: human WT SOST (Q24-Y213) with an N-terminal His6-MBP tag (natural protein)
chain: B9 chain
notes: sclerostin (SOST), human, residues Q24-Y213; also called MBP-SOST; MBP-SOST WT; source: High Five insect cells, secreted, purified; tag not cleaved; not shown: His6, N-terminal, kept; MBP, N-terminal, kept
As to B10, in test [2], the Kd was determined as 170 nM.

B11: human SOSTtr204 (Q24-A204) with an N-terminal His6-SUMO tag (domain or fragment)
chain: QGWQAFKNDATEIIPELGEYPEPPPELENNKTMNRAENGGRPPHHPFETKDVSEYSCRELHFTRYVTDGPCRSAKPVTELVCSGQCGPARLLPNAIGRGKWWRPSGPDFRCIPDRYRAQRVQLLCPGGEAPRARKVRLVASCKCKRLTRFHNQSELKDFGTEAARPQKGRKPRPRARSAKA
notes: sclerostin (SOST), human, residues Q24-A204; also called Smo-SOSTtr204; source: High Five insect cells, secreted, purified; tag not cleaved; not shown: His6, N-terminal, kept; SUMO, N-terminal, kept
Turning to B11, in test [2], binding was put at a Kd of 290 nM.

B12: disulfide-bonded, circularized SOST loop 2 peptide (CLLPNAIGRGKWGC) (peptide)
peptide: CLLPNAIGRGKWGC
modifications: disulfide 1-14 (inferred)
notes: first cysteine of the printed peptide, for the ring-closing disulfide; last two residues of the printed peptide, with the second cysteine of the disulfide; source: synthetic peptide (Peptron)
With B12, the Kd in test [5] came out at 5200 nM; in test [1] it was 5500 nM.

B13: human SOST C-terminal tail peptide (residues 170–213) (peptide)
chain: not shown
Molecule B13 gave a Kd in test [1] of 5800 nM.
